Data: patent US20250270332A1 (ANTLERA THERAPEUTICS, published 2025)

B1: diabody-Fc-diabody FZD4 CM0199 (bispecific antibody)
chain 1: EFEVQLVESGGGLVQPGGSLRLSCAASGFNSSFYFMHWVRQAPGKGLEWVATVYPYLDYTYYADSVKGRFTISADTSKNTAYLQMNSLRAEDTAVYYCARAFPGSYHPMDYWGQGTLVTVSSGGGGSDIQMTQSPSSLSASVGDRVTITCRASQSVSSAVAWYQQKPGKAPKLLIYSASSLYSGVPSRFSGSRSGTDFTLTISSLQPEDFATYYCQQSSYSLITFGQGTKVEIKLEDKTHTKVEPKTSDKTHTCPPCPAPELLGGPSVFLFPPKPKDTLMISRTPEVTCVVVDVSHEDPEVKFNWYVDGVEVHNAKTKPREEQYNSTYRVVSVLTVLHQDWLNGKEYKCKVSNKALPAPIEKTISKAKGQPREPMVFDLPPSREEMTKNQVSLWCMVKGFYPSDIAVEWESNGQPENNYKTTPPVLDSDGSFFLYSKLTVDKSRWQQGNVFSCSVMHEALHNHYTQKSLSLSPGKSGSETPGTSESATPESGGGEVQLVESGGGLVQPGGSLRLSCAASGFNFSSSSIHWVRQAPGKGLEWVASISSSYGYTYYADSVKGRFTISADTSKNTAYLQMNSLRAEDTAVYYCARGGSGVSHYGSVYYSWWALDYWGQGTLVTVSSGGGGSDIQMTQSPSSLSASVGDRVTITCRASQSVSSAVAWYQQKPGKAPKLLIYSASSLYSGVPSRFSGSRSGTDFTLTISSLQPEDFATYYCQQASYAPITFGQGTKVEIK
chain 2: EFEVQLVESGGGLVQPGGSLRLSCAASGFNSSFYFMHWVRQAPGKGLEWVATVYPYLDYTYYADSVKGRFTISADTSKNTAYLQMNSLRAEDTAVYYCARAFPGSYHPMDYWGQGTLVTVSSGGGGSDIQMTQSPSSLSASVGDRVTITCRASQSVSSAVAWYQQKPGKAPKLLIYSASSLYSGVPSRFSGSRSGTDFTLTISSLQPEDFATYYCQQSSYSLITFGQGTKVEIKLEDKTHTKVEPKSSDKTHNCPPCPAPELLGGPSVFLFPPKPKDTLMISRTPEVTCVVVDVSHEDPEVKFNWYVDGVEVHNAKTKPREEQYNSTYRVVSVLTVLHQDWLNGKEYKCKVSNKALPAPIEKTISKAKGQPREPQVYTLPPIRELMTSNQVSLSCAVKGFYPSDIAVEWESNGQPENNYKTTPPVLDSDGSFFLVSKLTVDKSRWQQGNVFSCSVMHEALHNHYTQKSLSLSPGKSGSETPGTSESATPESGGGEVQLVESGGGLVQPGGSLRLSCAASGFNLSYYYMHWVRQAPGKGLEWVASIYSSYGYTYYADSVKGRFTISADTSKNTAYLQMNSLRAEDTAVYYCARWSHVSGHYSGMDYWGQGTLVTVSSGGGGSDIQMTQSPSSLSASVGDRVTITCRASQSVSSAVAWYQQKPGKAPKLLIYSASSLYSGVPSRFSGSRSGTDFTLTISSLQPEDFATYYCQQSSYSLITFGQGTKVEIK
notes: Diabody-Fc-diabody format FZD agonist that recognizes FZD4 and LRP5; also called F4L5.13
B2: FZD4 Agonist ANT16 (bispecific antibody, human IgG1, kappa, N297G)
heavy 1: EVQLVESGGGLVQPGGSLRLSCAASGFDFTAYAMHWVRQAPGKGLEWVASIYPSGGYTAYADSVKGRFTISADTSKNTAYLQMNSLRAEDTAVYYCARRSYYFALDYWGQGTLVTVSSGGGGSDIQMTQSPSSLSASVGDRVTITCRASQSVSSAVAWYQQKPGKAPKLLIYSASSLYSGVPSRFSGSRSGTDFTLTISSLQPEDFATYYCQQYWAYYSPITFGQGTKVEIKGGGGSGGGGSEPKTSDKTHTCPPCPAPELLGGPSVFLFPPKPKDTLMISRTPEVTCVVVAVSHEDPEVKFNWYVDGVEVHNAKTKPREEQYGSTYRVVSVLTVLHQDWLNGKEYKCKVSNKALPAPIEKTISKAKGQPREPMVFDLPPSREEMTKNQVSLWCMVKGFYPSDIAVEWESNGQPENNYKTTPPVLDSDGSFFLYSKLTVDKSRWQQGNVFSCSVMHEALHNHYTQKSLSLSPGKGGGSGGGSGGGSGGGSGSTGEVQLVESGGGLVQPGGSLRLSCAASGFTLSSYSMHWVRQAPGKGLEWVAYISSYYGYTYYADSVKGRFTISADTSKNTAYLQMNSLRAEDTAVYYCARPAPGHWGFDYWGQGTLVTVSSASTKGPSVFPLAPSSKSTSGGTAALGCLVKDYFPEPVTVSWNSGALTSGVHTFPAVLQSSGLYSLSSVVTVPSSSLGTQTYICNVNHKPSNTKVDKKVEPKSCDKTHT
heavy 2: EVQLVESGGGLVQPGGSLRLSCAASGFDFSSSSIHWVRQAPGKGLEWVASISSSYGYTYYADSVKGRFTISADTSKNTAYLQMNSLRAEDTAVYYCARSWAMDYWGQGTLVTVSSGGGGSDIQMTQSPSSLSASVGDRVTITCRASQSVSSAVAWYQQKPGKAPKLLIYSASDLYSGVPSRFSGSRSGTDFTLTISSLQPEDFATYYCQQYAGAGLITFGQGTKVEIKGGGGSGGGGSEPKSSDKTHTCPPCPAPELLGGPSVFLFPPKPKDTLMISRTPEVTCVVVAVSHEDPEVKFNWYVDGVEVHNAKTKPREEQYGSTYRVVSVLTVLHQDWLNGKEYKCKVSNKALPAPIEKTISKAKGQPREPQVYTLPPIRELMTSNQVSLSCAVKGFYPSDIAVEWESNGQPENNYKTTPPVLDSDGSFFLVSKLTVDKSRWQQGNVFSCSVMHEALHNHYTQKSLSLSPGKGGGSGGGSGGGSGGGSGSTGEVQLVESGGGLVQPGGSLRLSCAASGFTLSSYSMHWVRQAPGKGLEWVAYISSYYGYTYYADSVKGRFTISADTSKNTAYLQMNSLRAEDTAVYYCARPAPGHWGFDYWGQGTLVTVSSASTKGPSVFPLAPSSKSTSGGTAALGCLVKDYFPEPVTVSWNSGALTSGVHTFPAVLQSSGLYSLSSVVTVPSSSLGTQTYICNVNHKPSNTKVDKKVEPKSCDKTHT
light: DIQMTQSPSSLSASVGDRVTITCRASQSVSSAVAWYQQKPGKAPKLLIYSASSLYSGVPSRFSGSRSGTDFTLTISSLQPEDFATYYCQQWYYAPITFGQGTKVEIKRTVAAPSVFIFPPSDEQLKSGTASVVCLLNNFYPREAKVQWKVDNALQSGNSQESVTEQDSKDSTYSLSSTLTLSKADYEKHKVYACEVTHQGLSSPVTKSFNRGEC
notes: Diabody-Fc-Fab format: bispecific LRP5 diabody at the N-terminus, two FZD4 Fabs at the C-terminus
B3: FZD4 Agonist ANT20 (bispecific antibody)
heavy 1: EVQLVESGGGLVQPGGSLRLSCAASGFDFTAYAMHWVRQAPGKGLEWVASIYPSGGYTAYADSVKGRFTISADTSKNTAYLQMNSLRAEDTAVYYCARRSYYFALDYWGQGTLVTVSSGGGGSDIQMTQSPSSLSASVGDRVTITCRASQSVSSAVAWYQQKPGKAPKLLIYSASSLYSGVPSRFSGSRSGTDFTLTISSLQPEDFATYYCQQASYAPITFGQGTKVEIKGGGGSGGGGSEPKTSDKTHTCPPCPAPELLGGPSVFLFPPKPKDTLMISRTPEVTCVVVAVSHEDPEVKFNWYVDGVEVHNAKTKPREEQYGSTYRVVSVLTVLHQDWLNGKEYKCKVSNKALPAPIEKTISKAKGQPREPMVFDLPPSREEMTKNQVSLWCMVKGFYPSDIAVEWESNGQPENNYKTTPPVLDSDGSFFLYSKLTVDKSRWQQGNVFSCSVMHEALHNHYTQKSLSLSPGKGGGSGGGSGGGSGGGSGSTGEVQLVESGGGLVQPGGSLRLSCAASGFTLSSYSMHWVRQAPGKGLEWVAYISSYYGYTYYADSVKGRFTISADTSKNTAYLQMNSLRAEDTAVYYCARPAPGHWGFDYWGQGTLVTVSSASTKGPSVFPLAPSSKSTSGGTAALGCLVKDYFPEPVTVSWNSGALTSGVHTFPAVLQSSGLYSLSSVVTVPSSSLGTQTYICNVNHKPSNTKVDKKVEPKSCDKTHT
heavy 2: EVQLVESGGGLVQPGGSLRLSCAASGFNLSYYYMHWVRQAPGKGLEWVASIYSSYGYTYYADSVKGRFTISADTSKNTAYLQMNSLRAEDTAVYYCARWSHVSGHYSGMDYWGQGTLVTVSSGGGGSDIQMTQSPSSLSASVGDRVTITCRASQSVSSAVAWYQQKPGKAPKLLIYSASDLYSGVPSRFSGSRSGTDFTLTISSLQPEDFATYYCQQYAGAGLITFGQGTKVEIKGGGGSGGGGSEPKSSDKTHTCPPCPAPELLGGPSVFLFPPKPKDTLMISRTPEVTCVVVAVSHEDPEVKFNWYVDGVEVHNAKTKPREEQYGSTYRVVSVLTVLHQDWLNGKEYKCKVSNKALPAPIEKTISKAKGQPREPQVYTLPPIRELMTSNQVSLSCAVKGFYPSDIAVEWESNGQPENNYKTTPPVLDSDGSFFLVSKLTVDKSRWQQGNVFSCSVMHEALHNHYTQKSLSLSPGKGGGSGGGSGGGSGGGSGSTGEVQLVESGGGLVQPGGSLRLSCAASGFTLSSYSMHWVRQAPGKGLEWVAYISSYYGYTYYADSVKGRFTISADTSKNTAYLQMNSLRAEDTAVYYCARPAPGHWGFDYWGQGTLVTVSSASTKGPSVFPLAPSSKSTSGGTAALGCLVKDYFPEPVTVSWNSGALTSGVHTFPAVLQSSGLYSLSSVVTVPSSSLGTQTYICNVNHKPSNTKVDKKVEPKSCDKTHT
light: B2 light
notes: Diabody-Fc-Fab format
B4: FZD4 Agonist ANT18 (bispecific antibody)
heavy 1: EVQLVESGGGMVQPGGSLRLSCAASGFNFSSSSIHWVRQAPGKGLEWVASISSSYGYTYYADSVKGRFTISADTSKNTAYLQMNSLRAEDTAVYYCARGGSGVSHYGSVYYSWWALDYWGQGTLVTVSSGGGGSDIQMTQSPSSLSASVGDRVTITCRASQSVSSAVAWYQQKPGKAPKLLIYSASSLYSGVPSRFSGSRSGTDFTLTISSLQPEDFATYYCQQASYAPITFGQGTKVEIKGGGGSGGGGSEPKTSDKTHTCPPCPAPELLGGPSVFLFPPKPKDTLMISRTPEVTCVVVAVSHEDPEVKFNWYVDGVEVHNAKTKPREEQYGSTYRVVSVLTVLHQDWLNGKEYKCKVSNKALPAPIEKTISKAKGQPREPMVFDLPPSREEMTKNQVSLWCMVKGFYPSDIAVEWESNGQPENNYKTTPPVLDSDGSFFLYSKLTVDKSRWQQGNVFSCSVMHEALHNHYTQKSLSLSPGKGGGSGGGSGGGSGGGSGSTGEVQLVESGGGLVQPGGSLRLSCAASGFTLSSYSMHWVRQAPGKGLEWVAYISSYYGYTYYADSVKGRFTISADTSKNTAYLQMNSLRAEDTAVYYCARPAPGHWGFDYWGQGTLVTVSSASTKGPSVFPLAPSSKSTSGGTAALGCLVKDYFPEPVTVSWNSGALTSGVHTFPAVLQSSGLYSLSSVVTVPSSSLGTQTYICNVNHKPSNTKVDKKVEPKSCDKTHT
heavy 2: EVQLVESGGGLVQPGGSLRLSCAASGFNLSYYYMHWVRQAPGKGLEWVASIYSSYGYTYYADSVKGRFTISADTSKNTAYLQMNSLRAEDTAVYYCARWSHVSGHYSGMDYWGQGTLVTVSSGGGGSDIQMTQSPSSLSASVGDRVTITCRASQSVSSAVAWYQQKPGKAPKLLIYSASSLYSGVPSRFSGSRSGTDFTLTISSLQPEDFATYYCQQSSYSLITFGQGTKVEIKGGGGSGGGGSEPKSSDKTHTCPPCPAPELLGGPSVFLFPPKPKDTLMISRTPEVTCVVVAVSHEDPEVKFNWYVDGVEVHNAKTKPREEQYGSTYRVVSVLTVLHQDWLNGKEYKCKVSNKALPAPIEKTISKAKGQPREPQVYTLPPIRELMTSNQVSLSCAVKGFYPSDIAVEWESNGQPENNYKTTPPVLDSDGSFFLVSKLTVDKSRWQQGNVFSCSVMHEALHNHYTQKSLSLSPGKGGGSGGGSGGGSGGGSGSTGEVQLVESGGGLVQPGGSLRLSCAASGFTLSSYSMHWVRQAPGKGLEWVAYISSYYGYTYYADSVKGRFTISADTSKNTAYLQMNSLRAEDTAVYYCARPAPGHWGFDYWGQGTLVTVSSASTKGPSVFPLAPSSKSTSGGTAALGCLVKDYFPEPVTVSWNSGALTSGVHTFPAVLQSSGLYSLSSVVTVPSSSLGTQTYICNVNHKPSNTKVDKKVEPKSCDKTHT
light: B2 light
notes: Diabody-Fc-Fab format

Each binder was assayed against T1, FZD4 recombinant extracellular domain, Fc fusion (FZD-Fc) (UniProt Q9ULV1 37-180) (assay: BLI (Octet), FZD-Fc captured on AHQ sensors, agonist in solution; apparent affinity).
T1 construct: extracellular domain; also called FZD4 ECD; not shown: Fc part of the FZD-Fc protein
T1 sequence (looked up): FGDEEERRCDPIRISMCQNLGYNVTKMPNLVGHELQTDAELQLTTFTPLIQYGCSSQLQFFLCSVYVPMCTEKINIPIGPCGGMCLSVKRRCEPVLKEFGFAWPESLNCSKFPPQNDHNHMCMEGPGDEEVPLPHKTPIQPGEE
For B1, the Kd was 700 pM. B2 was tested, and the Kd was 600 pM. B3 showed a Kd of 700 pM. B4 showed a Kd of 2600 pM.
